# From the supplement of paper PMC10567573
# B1: ZNF511 (parent)
# chain: YEHHYHTLHGNVCSFCKRAFPSGH
# Variants of: B1
# Test: protein stability index of a GFP-peptide fusion (GPS, HEK-293T) (PSI 1-6); higher = more stable
# Conditions: c terminus: a fixed tail appended
# 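Note: lentivirally expressed fusions sorted by FACS into six bins by GFP to DsRed ratio, PSI derived from sequencing read proportions per bin multiplied by bin number.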
row,Variant,protein stability index
1,YYHHYHTLHGNVCSFCKRAFPSGH,2.27
2,YEHHYHTLHSNVCSFCKRAFPSGH,1.97
3,YEHHYHTLHRNVCSFCKRAFPSGH,1.59
4,YEHHYHTLHWNVCSFCKRAFPSGH,2.29
5,YEHHYHTLHVNVCSFCKRAFPSGH,1.87
6,YEHHYHTLHINVCSFCKRAFPSGH,1.83
7,YEHHYHTLHNNVCSFCKRAFPSGH,2.28
8,YEHHYHTLHPNVCSFCKRAFPSGH,1.95
9,YEHHYHTLHLNVCSFCKRAFPSGH,1.95
10,YEHHYHTLHFNVCSFCKRAFPSGH,1.78
11,YEHHYHTLHTNVCSFCKRAFPSGH,2.13
12,YEHHYHTLHMNVCSFCKRAFPSGH,2.01
13,YEHHYHTLHANVCSFCKRAFPSGH,2.23
14,YEHHYHTLHQNVCSFCKRAFPSGH,1.78
15,YEHHYHTLHENVCSFCKRAFPSGH,2.39
16,YEHHYHTLHCNVCSFCKRAFPSGH,2.46
17,YEHHYHTLHDNVCSFCKRAFPSGH,2.29
18,YEHHYHTLHKNVCSFCKRAFPSGH,2.76
19,YEHHYHTLHYNVCSFCKRAFPSGH,2.46
20,YEHHYHTLHHNVCSFCKRAFPSGH,1.87
21,YEHSYHTLHGNVCSFCKRAFPSGH,2.43
22,YEHVYHTLHGNVCSFCKRAFPSGH,1.91
23,YEHRYHTLHGNVCSFCKRAFPSGH,1.73
24,YEHMYHTLHGNVCSFCKRAFPSGH,2.52

row,Variant,protein stability index
1,YEHNYHTLHGNVCSFCKRAFPSGH,2.23
2,YEHPYHTLHGNVCSFCKRAFPSGH,2.38
3,YEHKYHTLHGNVCSFCKRAFPSGH,2.03
4,YEHTYHTLHGNVCSFCKRAFPSGH,1.95
5,YEHIYHTLHGNVCSFCKRAFPSGH,1.82
6,YEHDYHTLHGNVCSFCKRAFPSGH,2.17
7,YEHAYHTLHGNVCSFCKRAFPSGH,1.75
8,YEHEYHTLHGNVCSFCKRAFPSGH,2.7
9,YEHFYHTLHGNVCSFCKRAFPSGH,1.33
10,YEHWYHTLHGNVCSFCKRAFPSGH,1.73
11,YEHLYHTLHGNVCSFCKRAFPSGH,2.07
12,YEHGYHTLHGNVCSFCKRAFPSGH,2.05
13,YEHCYHTLHGNVCSFCKRAFPSGH,3.26
14,YEHYYHTLHGNVCSFCKRAFPSGH,1.93
15,YEHQYHTLHGNVCSFCKRAFPSGH,2.1
16,MEHHYHTLHGNVCSFCKRAFPSGH,2.63
17,TEHHYHTLHGNVCSFCKRAFPSGH,2.75
18,REHHYHTLHGNVCSFCKRAFPSGH,2.22
19,VEHHYHTLHGNVCSFCKRAFPSGH,2.51
20,LEHHYHTLHGNVCSFCKRAFPSGH,2.75
21,NEHHYHTLHGNVCSFCKRAFPSGH,3.38
22,QEHHYHTLHGNVCSFCKRAFPSGH,3.62
23,EEHHYHTLHGNVCSFCKRAFPSGH,3
24,FEHHYHTLHGNVCSFCKRAFPSGH,2.72

row,Variant,protein stability index
1,PEHHYHTLHGNVCSFCKRAFPSGH,2.98
2,KEHHYHTLHGNVCSFCKRAFPSGH,3.02
3,IEHHYHTLHGNVCSFCKRAFPSGH,2.89
4,HEHHYHTLHGNVCSFCKRAFPSGH,2.81
5,SEHHYHTLHGNVCSFCKRAFPSGH,3.29
6,WEHHYHTLHGNVCSFCKRAFPSGH,2.07
7,GEHHYHTLHGNVCSFCKRAFPSGH,2.99
8,YEHHYHTLHGAVCSFCKRAFPSGH,2.64
9,YEHHYHILHGNVCSFCKRAFPSGH,2.31
10,YEHHYHGLHGNVCSFCKRAFPSGH,2.14
11,YEHHYHQLHGNVCSFCKRAFPSGH,1.9
12,YEHHYHRLHGNVCSFCKRAFPSGH,2.07
13,YEHHYHHLHGNVCSFCKRAFPSGH,2.46
14,YEHHYHKLHGNVCSFCKRAFPSGH,1.24
15,YEHHYHELHGNVCSFCKRAFPSGH,2.07
16,YEHHYHSLHGNVCSFCKRAFPSGH,1.72
17,YEHHYHDLHGNVCSFCKRAFPSGH,2.64
18,YEHHYHNLHGNVCSFCKRAFPSGH,2.09
19,YEHHYHCLHGNVCSFCKRAFPSGH,2.77
20,YEHHYHLLHGNVCSFCKRAFPSGH,2.28
21,YEHHYHYLHGNVCSFCKRAFPSGH,2.09
22,YEHHYHALHGNVCSFCKRAFPSGH,1.95
23,YEHHYHVLHGNVCSFCKRAFPSGH,1.85
24,YEHHYHWLHGNVCSFCKRAFPSGH,1.75

row,Variant,protein stability index
1,YEHHYHMLHGNVCSFCKRAFPSGH,2.86
2,YEHHYHFLHGNVCSFCKRAFPSGH,2.06
3,YEHHYHPLHGNVCSFCKRAFPSGH,2.2
4,YEFHYHTLHGNVCSFCKRAFPSGH,2.06
5,YEDHYHTLHGNVCSFCKRAFPSGH,3.06
6,YEEHYHTLHGNVCSFCKRAFPSGH,2.9
7,YEYHYHTLHGNVCSFCKRAFPSGH,2.23
8,YESHYHTLHGNVCSFCKRAFPSGH,2.6
9,YEWHYHTLHGNVCSFCKRAFPSGH,2.12
10,YECHYHTLHGNVCSFCKRAFPSGH,3.57
11,YEGHYHTLHGNVCSFCKRAFPSGH,3.04
12,YEIHYHTLHGNVCSFCKRAFPSGH,2.18
13,YERHYHTLHGNVCSFCKRAFPSGH,2.09
14,YEKHYHTLHGNVCSFCKRAFPSGH,2.27
15,YEMHYHTLHGNVCSFCKRAFPSGH,1.94
16,YENHYHTLHGNVCSFCKRAFPSGH,2.52
17,YEQHYHTLHGNVCSFCKRAFPSGH,2.19
18,YEVHYHTLHGNVCSFCKRAFPSGH,2.09
19,YETHYHTLHGNVCSFCKRAFPSGH,2.91
20,YELHYHTLHGNVCSFCKRAFPSGH,2.13
21,YEAHYHTLHGNVCSFCKRAFPSGH,1.97
22,YEPHYHTLHGNVCSFCKRAFPSGH,2.8
